According to paper PMC6471057:

target: HLA-E*01:01 on T2E cells (human | human (endogenous in T2)); assay: flow cytometry on cells; peptide stabilization on T2E cells (peptide 18 h at 37 °C), then 1 h with Brefeldin A 10 µg/mL, washed; HLA-E surface level (mAb 3D12) at 0, 2, 4 and 6 h at 37 °C; decrease taken as dissociation of the peptide from HLA-E

| DT50 (incubation time for 50% of the p:HLA-E complexes to decay, with Brefeldin A) [h] | reduction in HLA-E surface expression after 6 h [%] | Binder |
| --- | --- | --- |
| < 6 | – | LVDSGAQVSVVHPNL [LNL15 peptide] |
| – | 23 | VMAPRTLIL [VIL9 peptide] |
| – | 1.5 | DVHDGKVVSTHEQ [DQ13 peptide] |

target: HLA-E*01:01 on T2E cells (human | human (endogenous in T2)); assay: flow cytometry on cells; peptide stabilization on T2E cells (peptide 18 h at 37 °C), washed, without Brefeldin A; HLA-E surface level (mAb 3D12) at 0, 2, 4 and 6 h at 37 °C

| DT50 (without Brefeldin A) [h] | Binder |
| --- | --- |
| > 6 | LVDSGAQVSVVHPNL [LNL15 peptide] |
| > 6 | SKGKIYPVGY [SY10 peptide] |
| > 6 | VMAPRTLIL [VIL9 peptide] |
| > 6 | DVHDGKVVSTHEQ [DQ13 peptide] |
| > 6 | LGHPDTLNQGEFKEL [LEL15 peptide] |

target: HLA-E*01:01 on T2E cells (human | human (endogenous in T2)); assay: flow cytometry on cells; peptide stabilization on T2E cells (peptide 18 h at 37 °C), then 1 h with Brefeldin A 10 µg/mL, washed; HLA-E surface level (mAb 3D12) at 0, 2, 4 and 6 h at 37 °C; decrease taken as dissociation of the peptide from HLA-E; remark: another data set of the same source

| DT50 (incubation time for 50% of the p:HLA-E complexes to decay, with Brefeldin A) [h] | Binder |
| --- | --- |
| > 4 | LVDSGAQVSVVHPNL [LNL15 peptide] |
| > 6 | SKGKIYPVGY [SY10 peptide] |
| > 6 | VMAPRTLIL [VIL9 peptide] |
| > 6 | DVHDGKVVSTHEQ [DQ13 peptide] |
| > 6 | LGHPDTLNQGEFKEL [LEL15 peptide] |
